In the RNAGym collection of RNA variant scans (doi:10.1073/pnas.2313332121):

B1: TPR t1 (parent)
chain: GACCAAUCUGCCCUCAGAGCUCGAGAACAUCUUCGGAUGCAGAGGAGGCAGGCUUCGGUGGCGCGAUAGCGCCAACGUCCUCAACCUCCAAUGCAUCCCACCACAUGAUGAUGCCUGAAGAGCCUUGGUUUUUUG

Variants of: B1
Assay: polymerase ribozyme fitness, log enrichment relative to wild type (log ratio); higher = more active; in vitro selection for triplet polymerase activity
Summary of the method: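 For each subunit of a heterodimeric triplet polymerase ribozyme, a mutant library was built by PCR and transcribed, then taken through a single in vitro selection round in triplicate. Selection involved annealing to a biotinylated primer, the partner subunit and triplets, incubation frozen at −7 °C, gel excision of extended constructs, capture on streptavidin beads and RT-PCR. Genotypes were retained after Illumina sequencing of inputs and outputs only with ≥10 input reads and ≥1 read in each output. Fitness is defined as the logarithm of a genotype's enrichment relative to wild-type enrichment, using inverse-variance-weighted averages across replicates, with the logarithm taken to base 2.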

Row | Variant | polymerase ribozyme fitness (log ratio)
1 | U33C G60A | -4.87
2 | A27U G63C G71A C82G G113A U129A | -5.8
3 | A27U C49U | -3.64
4 | A16G U92C U129C | -3.37
5 | A6C G48U C53U U59G C64U A95G | -3.63
6 | A27U C73U A75G | -3.03
7 | G69A G120U | -2.36
8 | G36C U81A A84U | -2.7
9 | C22G A50U U96C A119G | -3.9
10 | A27U C62G | -5.76
11 | G17U C40A G42A C49A | -6.46
12 | G57U C72U G110C | -4.22
13 | C3U U87G | -0.293
14 | C20U A41C U116C | -4.23
15 | U92G C101U A103U U109A | -6.74
16 | U96A A121C | 1.1
17 | C22G G71U C89A | -5.9
18 | U54G C56A U132C | -1.66
19 | G47U C114G | -4.11
20 | A26U C82G | -4.82
21 | C4A G117C | -4.54
22 | C3A G61A | -1.23
23 | U38A G39A G61U | -1.2
24 | C53U A74C | -0.315

Row | Variant | polymerase ribozyme fitness (log ratio)
25 | C56G C89A A105G C114U | -5.42
26 | C20G C56G A84U | -4.43
27 | A43U C62G | -3.88
28 | C34A G61U U112G C123A | -4.54
29 | A6C G61U U78C A100U G120A U131C | 0.181
30 | U7G C22U C101A C114A A118U A119U | -5.29
31 | C31A C73U | -5.76
32 | G69C G117A | -2.37
33 | C4A C40U G42C G52U G60A A119U U129A | -5.41
34 | G61A C73A A118G | -1.71
35 | G10C A43G G44C C49U G52C C56G G77A | -6.25
36 | A6C C11G C15U C102A G120A U133A | -2.14
37 | U9C C53G A105U | -1.72
38 | U87A G120C U131G | 1.11
39 | G36A G58C U116G | -3.49
40 | A16G C28U U54G A121G | -0.979
41 | C34G C49U C97U C114G | -7.24
42 | C86A G110U | -2.79
43 | G36U G45A A119U | -1.61
44 | U55C G58A U92C | -0.821
45 | A111C G127A | -2.45
46 | U54C C101G | -1
47 | A46U C114G | -3.78
48 | G52C C56U U78G G128C | -2.87

Row | Variant | polymerase ribozyme fitness (log ratio)
49 | G42C G48A G63U U78C A83C G113U | -7.11
50 | C15U A43C C70A C123U C124A | -4.89
51 | G45A G69U A103C | -2.35
52 | C4A G45A G52C | -2.98
53 | C20G G61U C79A G117C C123A | -6.44
54 | A74U C99G U106A | -6.33
55 | A18G C31G C88U C114G | -5.82
56 | C53U C70A A84C A100U | -3.17
57 | U55C C82A | 0.163
58 | C89G U106A G120C G122C | -1.85
59 | A18U U96C U112A | -1.44
60 | C22U G44C | -4.2
61 | C3U G39C G44A G63A G77U U78A A119G | -2.88
62 | C62A G120U | 0.191
63 | U21C G44A A119G U125G | -1.38
64 | U54G C56G C80G A84G G117U | -6.69
65 | C8A A24G U32A C73G A111G | -4.24
66 | C8A U9G U87A | 0.00649
67 | G47A G120C | 0.156
68 | C79U C99A U112C | -4.18
69 | C12A A18C G77C A121U | -0.381
70 | C56A G71A U78G G128C U129A | -4.83
71 | C64U A66U C72U C97A C123G | -4.97
72 | C53G G113A | -1.24

Row | Variant | polymerase ribozyme fitness (log ratio)
73 | C53A U78C | -0.332
74 | C56G G69U C82U A95U G127U | -3.08
75 | C11U C28G A83C C85U | -4.39
76 | U9C U14C U33G G51A G69U A118G | -5.88
77 | U14A C73A A74C G120A | -0.495
78 | U87G U130G | -0.21
79 | U78C A111G G117A | -2.7
80 | A2U G57C C82U C98U | -3.78
81 | C4G C13U C53U C115G A121U | 0.995
82 | G61A U129C | 0.132
83 | U78A A105G | -2.86
84 | G48C C49A U78G U81G | -1.87
85 | U21A C56G U78A C85A U109G | -4.63
86 | C72U C76U A121C | 1.1
87 | U55C C89U C115U | -3.71
88 | C3U C40U G117U | -3.25
89 | C53A C64U U78C C104A | -0.646
90 | U92A G113C | -3.49
91 | C3U G39C G44A G77U U78A A119G | -1.19
92 | U38G G47U G120A U130C | -1.92
93 | G60U A121U C124A U131G | -3.49
94 | A43C G60C U131G | -3.6
95 | C76G C101A | -3.2
96 | C56U A90G C104U G117A A118U U131G | -2.92

Row | Variant | polymerase ribozyme fitness (log ratio)
97 | C53G U54C A121C | 1.78
98 | G47U C70U | -1.87
99 | G39A G48A A100C G120A | -1.06
100 | G63U C114G G117U | -5.98
101 | C22G A41U G44U | -5.29
102 | C101U A111C U116G | -2.46
103 | A95C C97U C101G | -3.36
104 | C3U G10A G44C C49A G120U | 0.0361
105 | U7A U21G G35A G52C C114U | -5.47
106 | U55A U78G C82A G110A | -2.58
107 | C94A U96A | -6.34
108 | A6C C13A C88A | -3.16
109 | C13G A16U C49A G63A | -3.65
110 | C11A G42U U106A | -3.49
111 | C70U A108U | -5.38
112 | G71C U130A | -1.3
113 | C73U U106C | -0.194
114 | C12A C13A U55A G63U U131A | -2.53
115 | C20A C72A A118U | -1.46
116 | C76G U78A U81A C89G A119U | -3.52
117 | C56U A95C G128C | -2.78
118 | U54A C70G | -2.37
119 | C70A G117C | -3.77
120 | U9G C70A | -1.08

Row | Variant | polymerase ribozyme fitness (log ratio)
121 | A50G G57U C79A C115A | -1.84
122 | G19U C40U | -3
123 | G19C G61C C88A | -4.49
124 | U78C A91G G93U | -2.35
125 | A18C C114G | -2.59
126 | G51U C114U | -5.14
127 | G93U C104A | -2.9
128 | C11G C13G A18U C49G | -3.53
129 | C8A C22G G63U U129G | -3.84
130 | C12G C64A U133A | -5.1
131 | G47A G61U | -1.24
132 | C72G C88G C115U | -3.24
133 | G45U C56A | -2.01
134 | U21C G45C C56U G69A U109A A111U C124G | -8.04
135 | G63A U132C | -1.92
136 | C3A A16U C73G | -3.81
137 | C101U G107A | -4.66
138 | C8G A46U G63C | -0.288
139 | G25C A26G C28A C72A G110A | -5.56
140 | C34G C124A | -3.61
141 | A66C C85U C88A | -1.61
142 | G35C G52U C53G A90G C98U | -6.7
143 | C20G G120U | -4.25
144 | C8A U112C A121G | 2.38

Row | Variant | polymerase ribozyme fitness (log ratio)
145 | G19U A24U A41C A43U U92G C101G G110U | -6.86
146 | C49U G61U C70G U81G C115G C123U U130A | -5.96
147 | C13G G58U G60C | -2.45
148 | U9C A41C A91C | -1.02
149 | G45U A111U | -4.37
150 | A18C C88G G120A | -2.81
151 | G69C U130A | -1.59
152 | C13U G51U C79G G127A | -2.92
153 | A84C C123U U133G | 0.656
154 | C104A G117C U131C | -4.93
155 | G45C G69C | -2.23
156 | A108C | -3.71
157 | U7G A18G C62U G120C U125A | -2.15
158 | U7C C34U G61U C88A U116A | -5.7
159 | G10A G19U G61U | -4.88
160 | C11G C123G | 0.989
161 | C15U C73U | -1.36
162 | C13U A75G C76G U133A | -0.431
163 | U7A G36C G52A U55G | -0.803
164 | C20U G57A G58C | -2.72
165 | C53A C123G | 2.31
166 | C8U U92A G93A | -4.46
167 | G36U G52C U78G A95G | -2.15
